In patent US20220227848A1 (NORDIC BIOSCIENCE A S, published 2022):

Legend:
[1] = molecular target: T1, selection peptide GLPVPGCWHK, the last 10 amino acids of the C-terminus of type XXIII collagen alpha 1 chain …; assay: figure legend (FIG. 1A/1B), PRO-C23 competitive ELISA
T1 construct: Synthetic peptide (Genscript); also called target peptide; standard peptide
T1 peptide: GLPVPGCWHK
Procedure: (§1) ELISA-plates used for the assay development were Streptavidin-coated from Roche (cat.: 11940279). All ELISA plates were analyzed with the ELISA reader from Molecular Devices, SpectraMax M, (CA, USA). The selected monoclonal antibody was labelled with horseradish peroxidase (HRP) using the Lightning link HRP labeling kit according to the instructions of the manufacturer (Innovabioscience, Babraham, Cambridge, UK). A 96-well streptavidin plate was coated with biotin-[…] (SEQ. ID No. 1) (Genscript, USA) and incubated 30 minutes at 20° C. 20 μL of standard peptide or samples were added to appropriate wells, followed by 100 μL of HRP conjugated monoclonal antibody 10F6, and incubated 20 hour at 4° C. Finally, 100 μL tetramethylbenzidine (TMB) (Kem-En-Tec cat.4380H) was added and the plate was incubated 15 minutes at […] in the dark. All the above incubation steps included shaking at 300 rpm. After each incubation step, the plate was washed five times. The TMB reaction was stopped by adding 100 μL of stopping solution (1% H₂SO₄) and measured at 450 nm with 650 nm as the reference.
(§2) Like type XXIII collagen, type XIII and XXV collagens are also transmembrane collagens and share highly similar sequences in their C-terminus (FIG. 1A). To fully investigate the specificity of the antibody, a series of peptides were synthesized and included in the inhibition test. […] (SEQ. ID No. 5) (FIG. 1B).

[2] = molecular target: T2, elongated peptide GLPVPGCWHKA; assay: competitive ELISA (PRO-C23 assay), peptide inhibition test
T2 peptide: GLPVPGCWHKA
Procedure: as §1, §2

[3] = molecular target: T3, truncated peptide GLPVPGCWH; assay: as above
T3 peptide: GLPVPGCWH
Procedure: as §1, §2

[4] = molecular target: T4, type XIII collagen C-terminal peptide GLPVQGCWNK; assay: as above
T4 construct: Synthetic peptide (Genscript); also called peptide from type XIII collagen; deselection peptide
T4 peptide: GLPVQGCWNK
Procedure: as §1, §2

[5] = molecular target: T5, type XXV collagen C-terminal peptide GLPMPGCWQK; assay: as above
T5 construct: Synthetic peptide (Genscript); also called peptide from type XXV collagen; deselection peptide
T5 peptide: GLPMPGCWQK
Procedure: as §1, §2

binding result [1]: binds
binding result [2]: no binding
binding result [3]: no binding
binding result [4]: no binding
binding result [5]: no binding
B1: monoclonal antibody 10F6 (antibody, mouse IgG2b, kappa, V domains shown)
VH: EVKLVESGGGLVKPGGSLKLSCAASGFTFSSYAMSWVRQTPEKRLAWVASISTAGRTYYPDTVRGRITISRDNARNILYLQMSSLRSEDTAIYYCARPDYDYDGYINWGQGTLVTVSA
VL: DIVMTQAAFSNPVTLGTSAYISCRSSKSLLHSNGVTYLYWYLQKPGQSPQLLIYQMSNLASGVPDRFSSSGSGTDFTLRISRVEAEDVGVYYCAQNLELPLTFGAGTKLELKR
notes: Mouse (Balb/C) hybridoma antibody purified on an IgG column; also called PRO-C23 antibody 10F6; PRO-C23 antibody
